According to IntAct's records for PubMed 22986341:

B1: Wnt inhibitory factor 1 (Homo sapiens), Q9Y5W5 (parent)
chain: MARRSAFPAAALWLWSILLCLLALRAEAGPPQEESLYLWIDAHQARVLIGFEEDILIVSEGKMAPFTHDFRKAQQRMPAIPVNIHSMNFTWQAAGQAEYFYEFLSLRSLDKGIMADPTVNVPLLGTVPHKASVVQVGFPCLGKQDGVAAFEVDVIVMNSEGNTILQTPQNAIFFKTCQQAECPGGCRNGGFCNERRICECPDGFHGPHCEKALCTPRCMNGGLCVTPGFCICPPGFYGVNCDKANCSTTCFNGGTCFYPGKCICPPGLEGEQCEISKCPQPCRNGGKCIGKSKCKCSKGYQGDLCSKPVCEPGCGAHGTCHEPNKCQCQEGWHGRHCNKRYEASLIHALRPAGAQLRQHTPSLKKAEERRDPPESNYIW
B2: Wnt inhibitory factor 1 (Homo sapiens), Q9Y5W5 (parent)
chain: B1 chain
partner: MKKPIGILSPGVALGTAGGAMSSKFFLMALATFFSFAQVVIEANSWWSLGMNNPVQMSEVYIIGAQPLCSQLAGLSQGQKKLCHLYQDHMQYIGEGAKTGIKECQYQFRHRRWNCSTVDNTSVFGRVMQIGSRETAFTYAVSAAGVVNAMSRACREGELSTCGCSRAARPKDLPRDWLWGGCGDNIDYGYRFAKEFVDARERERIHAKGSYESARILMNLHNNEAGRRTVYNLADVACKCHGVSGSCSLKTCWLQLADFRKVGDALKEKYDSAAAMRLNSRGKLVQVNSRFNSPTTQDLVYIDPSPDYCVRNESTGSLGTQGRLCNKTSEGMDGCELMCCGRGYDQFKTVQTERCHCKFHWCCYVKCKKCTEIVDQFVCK

Variants of: B1
Conditions: with wnt3a_mouse Wnt3a

| effect of a mutation on the interaction | Variant |
| --- | --- |
| decreasing interaction | W15R |

Variants of: B2
Conditions: with wnt5a_mouse Wnt5a

| effect of a mutation on the interaction | Variant |
| --- | --- |
| increasing interaction | W15R |
